Switch fluorescence ratio data for 79 sequences are collected here from the supplement of paper PMC10126150.

± gives the standard deviation of the averaged measurements.
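Further: ATP exposure 15 min at 22 °C before imaging.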

The test system of the data set is ATP. In words: switch fluorescence ratio, 500 uM ATP over buffer (Cy3 cluster intensity, sum of 5 cycles each) (fold (ratio)); higher = stronger signal-on switching upon ATP binding; sequences stand for … in TCGTCGGCAGCGTCAGATGTGTATAAGAGACAGTTTTTTTTTTTTTTTTTTTTTTTTT…TC. As to conditions: aptamer strand: ATP DNA aptamer (quencher-CACCTGGGGGAGTATTGCGGAGGAAGG + anchor), 100 nM annealed; ATP concentration: 500 uM. In outline:
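Switching-strand clusters labelled with Cy3 on a modified Illumina MiSeq flow-cell were annealed to 100 nM quencher-labelled ATP aptamer, imaged in selection buffer, and re-imaged after 15 min with 500 uM ATP at 22 °C. This was done over five cycles with NaOH stripping and re-annealing in between. The fluorescence ratio is summed target-cycle over summed buffer-cycle Cy3 intensity per cluster, averaged per switch-domain sequence, excluding clusters outside 100-1000 RFU.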
GTGTATACAT: the switch fluorescence ratio amounted to 0.977 ± 0.066. The value for GAGGGGTTCT was 0.984 ± 0.043; that for CCAGTAGTTT was 1 ± 0.013. TTTTGAGAGA: the switch fluorescence ratio is 1.11 ± 0.25. Turning to AGGGGGCCGC, the switch fluorescence ratio was 0.976 ± 0.087. The value for GAGGGGAGCT was 1.01 ± 0.045; that for TTTCACAATC was 1.07 ± 0.076. In the case of GGGTACGCTT, the switch fluorescence ratio worked out at 1 ± 0.025. With TGTTTCCGGT the figure was 1.44 ± 0.59.

With GAAGTAGAAA, the switch fluorescence ratio came to 0.9958 ± 0.0016.

Regarding CCGGGGGTTG, the switch fluorescence ratio was 1.04 ± 0.057. For AGTAGTAGGA, the switch fluorescence ratio was 1.01 ± 0.017. The value for GGATCGGTCA was 1.016 ± 0.0089. With AACTGTTTGC the figure was 0.983 ± 0.04.

Consider CGGATTTGGG, for which the switch fluorescence ratio amounted to 0.957 ± 0.067.

With TAATTATAGT, the switch fluorescence ratio was found to be 1.01 ± 0.011. With CATAAAGAGT the figure was 0.996 ± 0.01. Turning to AGATATACGG, the switch fluorescence ratio amounted to 1.02 ± 0.034. Regarding TAGGTGAGGG, the switch fluorescence ratio was determined as 1.11 ± 0.16. With TAAGCTTACA the figure was 1.04 ± 0.032; with AACTGGGGTA, 0.977 ± 0.01. Take CATTCGGGGG: the switch fluorescence ratio was 0.997 ± 0.016. Regarding CGAGGTAGGG, the switch fluorescence ratio amounted to 1.01 ± 0.073.

In the case of TAGAGGGCTG, the switch fluorescence ratio turned out to be 1.01 ± 0.016. For TTACGTTACG, the switch fluorescence ratio is 1.34 ± 0.047.

Regarding ACATTAGTTA, the switch fluorescence ratio came out at 1.05 ± 0.033. With CGGAATTTCC the figure was 1.09 ± 0.048; with TATTATGGGG, 1.02 ± 0.034; with GATTGTTAGA, 0.9891 ± 0.0081. On to AGGGGCTTAT, for which the switch fluorescence ratio worked out at 1.01 ± 0.014. Regarding TGTTAAGGGA, the switch fluorescence ratio was found to be 1 ± 0.02.

With ATGGCCTATA, the switch fluorescence ratio was 1.01 ± 0.028. Take GAGTCAGAGG: the switch fluorescence ratio was determined as 0.989 ± 0.039. As for GCAATTGGGT, the switch fluorescence ratio worked out at 1.08 ± 0.012. The value for GCCAGCAAGC was 2.25 ± 0.34.

CCCTGAGGAT: the switch fluorescence ratio was determined as 1.01 ± 0.031.

With GTAATCATTT, the switch fluorescence ratio is 0.9667 ± 0.0093. Consider ATGCAAGGTT, for which the switch fluorescence ratio stood at 1.01 ± 0.018. On to ACGGATTGAA, for which the switch fluorescence ratio came to 1.003 ± 0.0058.

As to TTTGGGGTAA, the switch fluorescence ratio came out at 0.991 ± 0.029. As for TGGATGGAAT, the switch fluorescence ratio worked out at 0.961 ± 0.035. Take CTTTTTAACA: the switch fluorescence ratio was found to be 0.9742 ± 0.0062. On to CGTGACGAGC, for which the switch fluorescence ratio was determined as 1.12 ± 0.062.

For the sequence TTGGAAAAT, the switch fluorescence ratio came out at 0.967 ± 0.013.

For the sequence GGAGAAAAGA, the switch fluorescence ratio came out at 0.9862 ± 0.0076.

On to CTGGTCGGCT, for which the switch fluorescence ratio was 1.09 ± 0.014. On to TGGGCGGGGG, for which the switch fluorescence ratio was determined as 1.03 ± 0.036.

With TGAGTATTGC, the switch fluorescence ratio came to 0.969 ± 0.04. As for TTTCTAGGGG, the switch fluorescence ratio was 1.01 ± 0.028. As for ATATTGGGTA, the switch fluorescence ratio turned out to be 0.997 ± 0.022.

For the sequence TTGGGATTCT, the switch fluorescence ratio came to 0.979 ± 0.019. For GGGCGGACAG, the switch fluorescence ratio amounted to 0.985 ± 0.019. With AACTCTGTTA the figure was 0.982 ± 0.03; with AGCATTGTCA, 1.01 ± 0.013; with TACACGTTTT, 1.03 ± 0.021. As for GTAATCTTTA, the switch fluorescence ratio worked out at 0.982 ± 0.029.

Consider ACGGTTCCAT, for which the switch fluorescence ratio turned out to be 0.97 ± 0.057. The value for GTGATAGGGG was 0.994 ± 0.053. With TGTTTGGGGC, the switch fluorescence ratio was 0.989 ± 0.019.

Regarding CAGTTTTTGG, the switch fluorescence ratio was 0.992 ± 0.013. The value for ATTATTGACT was 1.04 ± 0.014; that for TACTTTTATA was 1.03 ± 0.017; that for GACGGCTCAG was 1 ± 0.015. Regarding TTTAGAGGGA, the switch fluorescence ratio was 1.02 ± 0.019. AAAACTGCGA: the switch fluorescence ratio is 1.03 ± 0.067. As to AGGGGGGGA, the switch fluorescence ratio is 0.9821 ± 0.0079.

Take ATTCTGCTCC: the switch fluorescence ratio worked out at 0.991 ± 0.041. The value for AAAAGGGAGC was 1.14 ± 0.14.

For AAGTTTCGGG, the switch fluorescence ratio was found to be 0.987 ± 0.027. As to TGGTTTGATT, the switch fluorescence ratio stood at 1.003 ± 0.0064.

Consider TGGTGTAAT, for which the switch fluorescence ratio was 1 ± 0.03. Take TGTTGCAAGT: the switch fluorescence ratio was 0.976 ± 0.017.

For TAGAAGGGGG, the switch fluorescence ratio was 0.965 ± 0.016. With GTTTGGGTCA the figure was 1.03 ± 0.011.

As to GAGGTTCTAT, the switch fluorescence ratio turned out to be 1.0012 ± 0.00094. In the case of CTGATGAGAG, the switch fluorescence ratio is 0.997 ± 0.051. The value for TGTGAACGGA was 1.004 ± 0.01; that for AGATAATTTT was 0.988 ± 0.014; that for ATTATGGGTA was 1.02 ± 0.036.
